Reference: the supplement of paper PMC10567573

B1: MMP1 (parent)
chain: MFFKDRFYMRTNPFYPEVELNFIS
B2: IFRG15 (parent)
chain: INRADYCPECYPDNPANRSLVLPW

Variants of: B1
Assay: protein stability index of a GFP-peptide fusion (GPS, HEK-293T) (PSI 1-6); higher = more stable
Conditions: c terminus: a fixed tail appended
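Note: lentivirally expressed fusions sorted by FACS into six bins by GFP to DsRed ratio, PSI derived from sequencing read proportions per bin multiplied by bin number.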

Protein stability index, by site and new letter:
F7: R 3.28 | K 2.45 | M 2.98 | Q 2.06 | E 3.35 | V 4.52 | L 3.36 | A 3.4 | H 2.13 | N 1.31 | C 2.32 | Y 1.96 | P 3.98 | D 1.91 | W 3.2
M1: I 2.17 | F 3.03 | K 2.94 | H 2.05 | C 2.83 | E 2.86 | N 1.76 | V 3.89 | A 1.89 | W 3.52 | D 2.24 | Y 1.86 | S 2.84 | R 2.2
Y15: C 3.47 | F 2.63 | V 2.37 | K 2.72 | H 2.19 | P 2.4 | G 2.09 | T 2.43 | W 2.93 | Q 1.34 | D 3.35 | E 2.15 | L 3.33 | I 3.09 | A 1.72 | N 2.94 | S 2.69 | R 2.66 | M 1.97
R6: T 3.77 | W 2.14 | L 2.39 | I 3.27 | Y 3.35 | C 2.09 | V 3.16 | K 3.46 | M 2.35 | G 3.07 | Q 3.4 | E 2.85 | F 2.48 | S 2.64 | H 3.05 | N 2.96
P13: A 2.38 | K 2.58 | C 2.68 | Y 2.35 | I 2.85 | M 2.66 | G 2.62 | L 2.37 | Q 1.76 | R 3.31 | H 2.46 | W 3.9 | V 3.62 | S 1.94 | N 2.29 | D 3.62
R10: H 2.42 | L 2.79 | W 2.82 | V 3 | N 3.09 | G 2.73 | C 3.2 | D 2.14 | K 2.74 | Q 2.17 | A 1.52 | Y 2.63 | T 2.47 | P 2.77 | E 2.37 | M 2.88 | S 3.42
Y8: T 2.23 | E 1.89 | P 2.98 | C 3.33 | K 1.99 | G 2.07 | M 2.89 | V 3.2 | D 2.43 | H 2.22 | Q 2.87 | I 2.73 | R 2.98 | F 2.64 | S 3.33 | N 2.17 | W 2.96 | A 2.69
P16: N 3.95 | I 3.59 | L 1.75 | G 3.15 | R 1.98 | S 2.96 | K 2.25 | C 2.71 | E 3.49 | F 2.88 | H 2.95 | M 1.74 | V 3.21 | W 2.44 | T 3.07 | Y 2.82 | Q 3.75 | D 2.18
T11: H 1.78 | K 3.17 | M 3.47 | G 2.64 | V 4.1 | C 3.79 | L 2.72 | E 3.11 | R 2.28 | I 1.63 | A 3.18 | Q 2.59 | D 3.5 | N 2.96 | W 3.68 | S 2.32 | P 3.77
K4: I 3.25 | R 2.56 | H 3.26 | Q 4.05 | M 2.3 | V 1.49 | Y 3.55 | W 2.11 | F 3.7 | P 2.5 | N 2.26 | S 3.15 | G 1.72
F2: A 3.29 | E 2.98 | N 1.93 | D 2.71 | I 2.59 | V 2.75 | Q 2.26 | G 3.1 | C 3.01 | S 2.72 | P 2.06 | H 2.93 | K 4.48 | L 2.36 | R 4.3 | T 2.29 | M 2.02
F3: L 2.29 | S 2.9 | E 1.5 | P 1.48 | T 2.11 | I 2.64 | R 1.55 | K 1.83 | D 1.85 | G 4.14 | H 1.89 | W 3.61 | V 2.82 | Q 3.42 | Y 2.97 | N 1.73
D5: N 2.77 | C 3.75 | M 2.63 | P 3.51 | E 2.63 | Q 3.19 | L 2.49 | W 1.94 | T 3.47 | A 2.8 | S 2.64 | H 2.78 | G 3.47 | I 2.52 | V 2.6 | Y 2.38
N12: R 3.81 | G 2.91 | E 4.11 | K 3.17 | M 2.94 | D 3.11 | V 2.43 | F 3.09 | L 2.51 | W 3 | I 2 | P 3.4 | Q 2.67 | S 2.74 | C 3.02 | H 2.87 | Y 3.12 | T 2.56
E17: I 3.71 | H 3.02 | D 1.97 | F 2.19 | K 2.21 | G 2.52 | C 4.42 | A 2.9
F14: G 2.92 | T 2.33 | N 2.87 | M 1.73 | R 3.1 | A 3.69 | C 2.65 | Q 2.58 | H 2.82 | I 2.54 | V 3.62 | Y 2.96 | L 2.62 | E 3.46 | K 3.31 | D 3.86
M9: Y 3.12 | T 2.76 | C 3.4 | P 1.93 | L 1.86 | K 2.59 | R 2.1 | E 1.93 | V 2.71 | D 1.75 | H 1.83 | I 2.02 | A 1.27 | S 3.67 | Q 2.65 | W 3.91 | F 2.56 | G 3.71

Variants of: B2
Assay: as above
Conditions: c terminus: a fixed tail appended

Protein stability index: each site, then its substitutions
V21: N 2.3 | T 2.43 | S 1.97 | R 1.83 | P 2.92 | M 2.29 | Y 1.99 | Q 2.12 | W 1.29
L22: S 1.93 | E 2.44 | F 2.05 | W 1.65 | K 2.04 | V 3 | D 2.15 | G 2.37 | P 2.93 | A 2.69 | M 2.37 | I 1.72 | Y 2.17 | N 2.65 | T 2.31 | H 1.49 | R 2.36 | Q 2.35 | C 2.12
W24: F 2.3 | A 2.19 | D 3.89 | M 2.23 | P 2.62 | H 2.37 | N 2.46 | Q 2.24 | E 2.99 | K 2.28 | I 1.9 | V 2.53 | Y 2.12 | C 2.31 | S 2.9 | G 2.69 | L 1.8 | T 2.3 | R 1.77
P23: C 1.67 | K 1.71 | S 2.83 | I 2.89 | L 1.57 | M 2.5 | T 1.59 | H 1.65 | Y 2.09 | N 1.65 | W 2.4 | D 2.92 | Q 1.87 | E 1.03 | R 1.58
